These results are taken from publication PMC7979930.

The target in data set [1] is CEN3 CENP-A^Cse4 nucleosome (budding yeast | yeast) (UniProt P36012). Briefly: native gel or EMSA; CBF3/CBF3core with CEN3 nucleosomes, room temperature 60 min; native agarose gels in 0.2 x TBE, SYBR Green I stain, bands quantified. For orientation: In EMSA bound probe runs differently from free probe, usually more slowly.
Data set [2] concerns the target CEN3 CENP-A^Cse4 nucleosome with H2B_5mut (budding yeast | yeast) (UniProt P36012). The data set is described as above.
Data set [3] has as its target CEN3 CENP-A^Cse4_∆L1 nucleosome (budding yeast | yeast) (UniProt P36012). The data set is described as above.
The target of data set [4] is CEN3 CENP-A^Cse4_∆L1 nucleosome with H2B_5mut (budding yeast | yeast) (UniProt P36012). The data set is described as above.
Data set [5] has as its target CBF3core, dephosphorylated (Cep3 dimer, Ctf13, Skp1) (budding yeast) (UniProt P40969+P35203+P52286). Briefly: EMSA. Particulars: 1 mM DTT, 60 min on ice, 530 nM nucleosome, 106-1166 nM CBF3/CBF3core, 4% PAGE 0.2x TBE 4 C, EtBr stain, Hill fit.
Data set [6] deals with CBF3, dephosphorylated (CBF3core + Ndc10 NTD) (budding yeast) (UniProt P40969+P35203+P52286+P32504). Put plainly: EMSA. The settings on record: Ndc10 dissociates, main text says CEN3 nucleosome, Methods CEN3-601, EMSA: 10 mM Tris pH 7.4, 75 mM NaCl, 1 mM DTT, 60 min on ice, 530 nM nucleosome, 106-1166 nM CBF3/CBF3core, 4% PAGE 0.2x TBE 4 C, EtBr stain, Hill fit.
[7] abbreviates: Fig. 3c legend says CEN3, Supp. Fig. 4f says CEN3-601, EMSA: 10 mM Tris pH 7.4, 75 mM NaCl.

For orientation: Kd means the concentration at which binding is half-saturated. Take “dephosphorylated CBF3core (from UniProt P40969 1-608; P52286 1-194; P35203 1-478) (complex)”: the equilibrium dissociation constant (Kd) in data set [1] is 320 nM; in data set [2], 350 nM; in data set [3], 360 nM; in data set [4] it was 680 nM.
“ATCGAGAATCCCGGTGCCGAGGCCGCTCAATTGGTCGTAGACAGCTCTAGCACCGCTTAAACGCACGTACGCGCTGTCCCCCGCGTTTTAATATTAGTGTATTTGATTTCCGAAAGTTAAAAAAGAAATAGTAAGAAATCATCCGAT (double strand) [CEN3-601 Cse4_deltaL1 nucleosome]”: the Kd in data set [5] (setting [7]) was found to be 360 nM.
On to “ATCGAGAATCCCGGTGCCGAGGCCGCTCAATTGGTCGTAGACAGCTCTAGCACCGCTTAAACGCACGTACGCGCTGTCCCCCGCGTTTTAATATTAGTGTATTTGATTTCCGAAAGTTAAAAAAGAAATAGTAAGAAATCATCCGAT (double strand) [CEN3-601 Cse4 nucleosome]”, for which the Kd turned out to be 550 nM in data set [6]; 320 nM in data set [5] (NucCse4/H2B, Fig. 3c legend says CEN3, Supp. Fig. 4f and Methods say CEN3-601, EMSA: 10 mM Tris pH 7.4, 75 mM NaCl).
In data set [5] (setting [7]), “ATCGAGAATCCCGGTGCCGAGGCCGCTCAATTGGTCGTAGACAGCTCTAGCACCGCTTAAACGCACGTACGCGCTGTCCCCCGCGTTTTAATATTAGTGTATTTGATTTCCGAAAGTTAAAAAAGAAATAGTAAGAAATCATCCGAT (double strand) [CEN3-601 Cse4_deltaL1/H2B_5mut nucleosome]” came in with a Kd of 680 nM.
In turn, “ATCGAGAATCCCGGTGCCGAGGCCGCTCAATTGGTCGTAGACAGCTCTAGCACCGCTTAAACGCACGTACGCGCTGTCCCCCGCGTTTTAATATTAGTGTATTTGATTTCCGAAAGTTAAAAAAGAAATAGTAAGAAATCATCCGAT (double strand) [CEN3-601 Cse4/H2B_5mut nucleosome]” gave a Kd in data set [5] (setting [7]) of 350 nM.
